These results are taken from patent publication US11643691B2, “Predictive biomarkers for cancer immunotherapy and methods of using same” (Duke University, priority 2018, dated 2023).

One data set concerns DC IDO. The data set can be described thus: IDO enzymatic assay (kynurenine in conditioned media by HPLC). Type of data set: cell-based, Murine. The note with it: purified DC cultures or tumor-infiltrating DCs. The procedure:
IDO enzymatic assay and Hemin assay: DC IDO enzyme activity was measured by the conversion of L-tryptophan to L-kynurenine in conditioned media by HPLC (Pallotta et al., 2011). Intracellular hemin was measured using a colorimetric assay kit (BioVision).

The next data set has as its system AMPK. As to the kind of experiment: Thr-172 phospho-AMPK immunoblot analysis of DCs. Type of data set: cell-based, Murine. The following applies: Wnt5a 200 ng/mL, 24 and 48 hrs. From the text:
(§1) Data is representative of 3 independent experiments. […] Data is representative of 3 independent experiments. […] Antibodies, Immunoprecipitation, and Immunoblot Analysis: Primary antibodies including CPT1A (Cell signaling), PPAR-γ (Santa Cruz Biotechnology), β-catenin, β-actin (Millipore), p-AMPK(T172)/AMPK (Cell signaling), p-AKT(T308)/Akt (Cell Signaling) were used at 1:1000. Secondary antibodies including goat anti-rabbit IgG-HRP (Millipore) and goat anti-mouse IgG-HRP (Millipore) were used at 1:5000. Cells were lysed in Laemmli sample buffer after treatment and subjected to SDS-polyacrylamide gel electrophoresis and immunoblot analysis. For immunoprecipitation, cells were lysed in radio immunoprecipitation assay (RIPA) buffer [10 mM sodium phosphate (pH 8.0), 150 mM NaCl, 1% Triton X-100, 1% sodium deoxycholate, and 0.1% SDS in the presence of 1 mM DTT, 1 mM phenylmethylsulfonylfluoride, and a protease inhibitor cocktail (Sigma)], precleared with protein A beads, and then incubated with 1 μg of antibody against β-catenin or isotype control IgG with protein A-agarose beads on a rotator overnight at 4° C. After 3 washes with RIPA buffer, immunoprecipitated complexes were eluted in sample buffer by boiling and subjected to immunoblot analysis. Immunoblots were visualized by chemiluminescence substrate (ThermoFisher) and imaged by a ChemiDoc XRSplus system (BioRad).
(Immunoblotting shows a protein as a band on a membrane.)

In the next data set the test system is BMDCs. The data set can be described thus: Metabolomics LC-MS of TCA intermediates. The data set is classed as cell-based, Murine. The note with it: rWnt5a stimulation. How it is done:
Metabolomics: Metabolites were extracted from 5×106 BMDCs and subjected to LC-MS analysis according to a previously published protocol (Liu et al., 2014a, Liu et al., 2014b). Metabolites were extracted from 5×106 BMDCs from each experimental group (3 mice per group), washed with ice cold PBS, and lysed in 80% (v/v) methanol on dry ice. Cell lysates were frozen at −80° C. for 15 minutes to disrupt cell membrane and quench enzymatic activity. Samples were then thawed on ice, vortexed rigorously to extract metabolites, and then centrifuged at 20,000 g at 4° C. to precipitate proteins and cell debris. Metabolite extracts were then dried using a speed vacuum and subjected to LC-MS analysis (Liu et al., 2014a, Liu et al., 2014b). Data collected from LC-Q exactive MS is processed on Sieve 2.0 (Thermo). For metabolite analysis, theoretical m/z and retention time of 263 known metabolites were used for positive mode, and 197 metabolites were used for negative mode. Data containing detected m/z and relative intensity of different samples were obtained.

The test system of data set [1] is bone-marrow-derived DCs (BMDCs). The data set can be described thus: Extracellular lactate assay (surrogate for glycolysis). Type of data set: cell-based, Murine. The following applies: BMDC culture media, 0 to 48 hr. The procedure: Lactate measurement: L-Lactate was measured by lactate dehydrogenase conversion of L-lactate+NAD+ to pyruvate+NADH following treatment with […] (Pesce et al., 1975). Lactate standards and samples were read at NADH specific absorbance 340 nm. For lactate measurement in Wnt5a time course, BMDCs were seeded in a 48-well plate at 1 million cell per well. BMDCs were treated with 100 ng/ml of recombinant Wnt5a from 0 to 48 hours. For extracellular lactate determination, 0.5 ml of supernatant media was collected directly from the culture, deproteinized by polyethylene glycol precipitation (25% w/v PEG-8000, sigma), and clarified by centrifugation at 20,000 g for 5 min. […] L-lactate was measured by lactate dehydrogenase (LDH, final 2 U/ml, Sigma) conversion of L-lactate+NAD+(β-Nicotinamide adenine dinucleotide, Sigma) to pyruvate+NADH in Glycine Buffer solution (final concentration Glycine 0.2M, Hydrazine 0.17M to destroy pyruvate allowing reaction to run to complete oxidation of lactate, Chloroform 0.0125%, Sigma). Reaction was incubated at 37° C. for 30 minute (without CO2), L-lactate standards and samples were read at NADH specific absorbance 340 nm (Infinite 200 PRO, Tecan).

Data set [2] has as its system DCs. As to the kind of experiment: Oxygen consumption rate (OCR) / OXPHOS, Seahorse XFe24 flux analysis of murine DCs. The note with it: DCs pre-treated. Type of data set: cell-based. How it is done: (§2) Dendritic Cell Conditioning: DCs were treated with Wnt3a (100 ng/mL), Wnt5a (200 ng/mL), LPS (1 μg/mL), 1-MT (1 mM), 2DG (1 mM), or ETO (100 μM), 2-DG(2-deoxy-d-glucose, 1 mM), Oligomycin (1 μM), succinylacetone (250 μM), or vehicle control either for 24 or 48 hrs prior to their use in both in vitro and in vivo experiments.
Cellular Energy Metabolism Analysis: DC energy metabolism was measured using the XFe24 extracellular flux analyzer (Seahorse Bioscience), with the glycolysis stress test kit and the mitochondrial stress test kit as previously described (Everts et al., 2014, Zhao and Klimecki, 2015). For experiments involving LPS injection, DCs were plated in XFe24 plates (200,000/well in 500p1) and treated with LPS for 48 hours prior to XF analysis. DCs were washed and analyzed in XF media (RPMI without sodium bicarbonate, 10 mM glucose, 1% FBS, 2 mM L-glutamine). ECAR was analyzed in real-time with or without LPS stimulation. For experiments involving BrafV600EPten−/− cell line-derived conditioned media (CM), collected CM was concentrated and desalted with an Amicon Ultra 30K filter according to manufacturer's recommendations (Milipore). Final concentrate was further washed with XF media 3 times, added to DCs immediately prior to OCR analysis. For standard ECAR analysis, XF media (without glucose) was used to wash cells prior to the assay. […]

Data set [3] relates to DCs. As to the kind of experiment: Extracellular acidification rate (ECAR), Seahorse XFe24 flux analysis of DCs. Type of data set: cell-based, Murine. The procedure: as §2
Cellular Energy Metabolism Analysis: DC energy metabolism was measured using the XFe24 extracellular flux analyzer (Seahorse Bioscience), with the glycolysis stress test kit and the mitochondrial stress test kit as previously described (Everts et al., 2014, Zhao and Klimecki, 2015). For experiments involving LPS injection, DCs were plated in XFe24 plates (200,000/well in 500p1) and treated with LPS for 48 hours prior to XF analysis. DCs were washed and analyzed in XF media (RPMI without sodium bicarbonate, 10 mM glucose, 1% FBS, 2 mM L-glutamine). ECAR was analyzed in real-time with or without LPS stimulation. For experiments involving BrafV600EPten−/− cell line-derived conditioned media (CM), collected CM was concentrated and desalted with an Amicon Ultra 30K filter according to manufacturer's recommendations (Milipore). Final concentrate was further washed with XF media 3 times, added to DCs immediately prior to OCR analysis. For standard ECAR analysis, XF media (without glucose) was used to wash cells prior to the assay. A final concentration of 10 mM glucose, 1 μM oligomycin, 50 mM 2-DG(sigma) were injected through XFe24 port A-C. For standard OCR analysis, XF media (with 10 mM glucose) was used to wash cells, a final concentration of 1 μM oligomycin, 1.5 μM FCCP (fluoro-carbonyl cyanide phenylhydrazone), 100 nM rotenone, and 1 μM of antimycin-A (Sigma) were injected through XFe24 port A-C.

The test system of another data set is Akt. The data set can be described thus: Akt Thr-308 phosphorylation immunoblot of DCs. The data set is classed as cell-based, Murine. The following applies: Wnt5a 200 ng/mL, 48 hrs.
Description: as §1

B1: Wnt5a: Recombinant Human/Mouse Wnt5a Protein (R&D Systems) (protein, UniProt P41221 62-380, looked up)
Protein Wnt-5a: IIGAQPLCSQLAGLSQGQKKLCHLYQDHMQYIGEGAKTGIKECQYQFRHRRWNCSTVDNTSVFGRVMQIGSRETAFTYAVSAAGVVNAMSRACREGELSTCGCSRAARPKDLPRDWLWGGCGDNIDYGYRFAKEFVDARERERIHAKGSYESARILMNLHNNEAGRRTVYNLADVACKCHGVSGSCSLKTCWLQLADFRKVGDALKEKYDSAAAMRLNSRGKLVQVNSRFNSPTTQDLVYIDPSPDYCVRNESTGSLGTQGRLCNKTSEGMDGCELMCCGRGYDQFKTVQTERCHCKFHWCCYVKCKKCTEIVDQFVCK
As to B1, the “DC IDO enzymatic activity (kynurenine)” value in the data set with DC IDO is listed as “promoted DC IDO enzymatic activity”. In addition, the “AMPK activation (Thr-172 phospho-AMPK)” value with AMPK is “suppressed AMPK activation”. In addition, the TCA intermediate metabolites entry with BMDCs is recorded as “increased quantities of many TCA intermediates but a decrease in α-ketoglutarate”. Besides, the lactate production result in data set [1] is “suppresses lactate production”. Further, in the data set on DCs [2], the “OXPHOS in DCs (OCR)” value is “effectively promoted OXPHOS in DCs”. Also, the “LPS-induced glycolytic surge (ECAR)” value in the data set with DCs [3] (DCs pre-treated) was “suppressed the lipopolysaccharide (LPS)-induced glycolytic surge”. The “glycolysis (ECAR) acutely after stimulation” value with DCs [3] (within 90 min of stimulation) is on record as “failed to impact glycolysis”. In addition, the “DC Akt Thr-308 phosphorylation” value with Akt was “no impact”.
